The values below come from paper PMC12049551, “Labelizer: systematic selection of protein residues for covalent fluorophore labeling” (Nature Communications, 2025).

Like-named read-outs stand apart in the source and are kept apart here.

Assay [1] can be described thus: Isothermal titration calorimetry (ITC) of PBP variants with inorganic phosphate. The format is binding, E. coli. To be noted: 25 °C, unlabeled protein, mean ± SD from n = 2 protein preparations. How it is done:
Protein from a diluted solution was concentrated to ~ 30 µM using a Viva Spin 6 concentrator with a 10 kDa MWCO. The filtrate was used to prepare the phosphate solution at 450 µM. The reaction cell was filled with the protein solution and titrated in 19 steps of 2 µl each of phosphate solution in 160 s intervals. A baseline control was obtained from measurements made with protein-free filtrate in the reaction cell, and this baseline was subtracted from the experimental thermograms. Data were fitted to a single binding site model using the Setup MicroCal PEAQ-ITC Analysis Software provided by the manufacturer.
(ITC needs no label: the signal is the heat of the interaction.)

On the set-up of assay [2]: method as in PMID 26199994. To be noted: cited from earlier work.

B1: PBP (S3C-I76G-P86C): double-cysteine variant of E. coli phosphate binding protein PBP with additional I76G mutation (protein, UniProt P0AG82 26-346, looked up, variant S3C I76G P86C)
Phosphate-binding protein PstS: EACLTGAGATFPAPVYAKWADTYQKETGNKVNYQGIGSSGGVKQIIANTVDFGASDAPLSDEKLAQEGLFQFPTVGGGVVLAVNICGLKSGELVLDGKTLGDIYLGKIKKWDDEAIAKLNPGLKLPSQNIAVVRRADGSGTSFVFTSYLAKVNEEWKNNVGTGSTVKWPIGLGGKGNDGIAAFVQRLPGAIGYVEYAYAKQNNLAYTKLISADGKPVSPTEENFANAAKGADWSKTFAQDLTNQKGEDAWPITSTTFILIHKDQKKPEQGTEVLKFFDWAYKTGAKQANDLDYASLPDSVVEQVRAAWKTNIKDSSGKPLY
On to B1, for which the Kd in assay [1] is 10 ± 5 µM.

B2: PBP (I76G): cysteine-less PBP variant with only the I76G mutation (protein, UniProt P0AG82 26-346, looked up, variant I76G)
Phosphate-binding protein PstS: EASLTGAGATFPAPVYAKWADTYQKETGNKVNYQGIGSSGGVKQIIANTVDFGASDAPLSDEKLAQEGLFQFPTVGGGVVLAVNIPGLKSGELVLDGKTLGDIYLGKIKKWDDEAIAKLNPGLKLPSQNIAVVRRADGSGTSFVFTSYLAKVNEEWKNNVGTGSTVKWPIGLGGKGNDGIAAFVQRLPGAIGYVEYAYAKQNNLAYTKLISADGKPVSPTEENFANAAKGADWSKTFAQDLTNQKGEDAWPITSTTFILIHKDQKKPEQGTEVLKFFDWAYKTGAKQANDLDYASLPDSVVEQVRAAWKTNIKDSSGKPLY
As for B2, the “reduction of affinity for inorganic phosphate compared to wild-type” value in assay [2] (I76G mutation) is listed as about 200 fold. In assay [1], this molecule came in with a Kd of 19 ± 6 µM.

B3: wild-type: wild-type E. coli phosphate binding protein PBP (phoS gene) (protein, UniProt P0AG82 26-346, looked up)
Phosphate-binding protein PstS: EASLTGAGATFPAPVYAKWADTYQKETGNKVNYQGIGSSGGVKQIIANTVDFGASDAPLSDEKLAQEGLFQFPTVIGGVVLAVNIPGLKSGELVLDGKTLGDIYLGKIKKWDDEAIAKLNPGLKLPSQNIAVVRRADGSGTSFVFTSYLAKVNEEWKNNVGTGSTVKWPIGLGGKGNDGIAAFVQRLPGAIGYVEYAYAKQNNLAYTKLISADGKPVSPTEENFANAAKGADWSKTFAQDLTNQKGEDAWPITSTTFILIHKDQKKPEQGTEVLKFFDWAYKTGAKQANDLDYASLPDSVVEQVRAAWKTNIKDSSGKPLY
Regarding B3, in assay [2] (wild-type affinity for inorganic phosphate), the Kd was 0.07 µM.

One may read the Kd as a measure of binding affinity in units of concentration.
